Data taken from US6689364B2, “Borrelia burgdorferi polypeptides and uses thereof” (Tufts University, priority 2000, dated 2004).
“Also recorded” adds a separate entry of the source.

B1: FTK-OspA (protein)
chain: KQNVSSLDEKNSVSVDLPGEMKVLVSKEKNKDGKYDLIATVDKLELKGTSDKNNGSGVLEGVKADKSKVKLTISDDLGQTTLEVFKEDGKTLVSKKVTSKDKSSTEEKFNEKGEVSEKIITRADGTRLEYTGIKSDGSGKAKEVLKGFTLEGKLTAEKTTLVVKEGTVTLSKNISKSGEVSVELNDTDSSAATKKTAAWNSGTSTLTITVNSKKTKDLVFTKENTITVQQYDSNGTKLEGSAVEITKLDEIKNALK

Tests used:
[1] = test system: HLA-DRB1*0401 restricted OspA-specific human T cell clones; test: Cytokine production by T cell clones on stimulation with OspA; assay type: cell-based; details: for production of interferon gamma by T cell clones: FIG. 3A; for production of interleukin 13 by T cell clones: FIG. 3B
Description: (§1) Binding of OspA to HLA-DRB1*0401 is determined by measuring stimulation of T cells reactive with wildtype OspA. The stimulation of T cells is determined by measuring OspA-induced proliferation or cytokine production, including interferon gamma and interleukin 13 (see Examples, below).
(§2) Human T cells were cloned from the synovial fluid of an HLA DRB1*0401 homozygous patient based upon their ability to recognize the epitope OspA165-173 in the context of HLA-DRB1*0401. These clones were then tested for their ability to respond functionally to wild type versus FTK OspA by either proliferation or cytokine secretion.
(§3) Three different human DR4-restricted T cell clones from a patient with treatment-resistant Lyme arthritis were selected for their ability to respond to the wild type OSpA165-173 peptide. […] These T cells proliferate in response to stimulation with wildtype OspA, but not FTK-OspA.

[2] = test system: HLA-DRB1*0401 restricted OspA-specific human T cell clones; test: Proliferation response of human DR4-restricted T cell clones to OspA; assay type: cell-based; details: for proliferation response of T cell clones: three human DR4-restricted T cell clones from a patient with treatment-resistant Lyme arthritis, FIG. 2
Description: as §1, §2, §3

monoclonal antibody LA-2 = test: In vitro binding of protective anti-OspA monoclonal antibody LA-2; details: in vitro assay, FIG. 6
Excerpt: Monoclonal antibody LA-2, which provides passive immunity against B. burgdorferi in mice, binds an epitope in OspA.

OspA = test: Serum OspA-specific IgG in immunized mice; assay type: in vivo; details: for serum OspA-specific IgG pre-infection: FIG. 7A; for serum OspA-specific IgG post-infection: FIG. 7B
Excerpt: (§4) On day 35, the vaccinated mice were exposed to 5×10^3 or 1×10^4 passage 0 N40 B. burgdorferi in the right footpad. On day 56, mice were sacrificed and the following tissue samples were taken for further analysis: ankles (for histology to analyze arthritis), blood and bladder (for culture to detect B. burgdorferi), serum (for serology to determine the antibody response), and ears (for PCR to detect B. burgdorferi).

N40 B. burgdorferi = test: Mouse vaccination and B. burgdorferi challenge, protection against Lyme arthritis; assay type: in vivo, mice; details: trials A and B together; for mice protected from development of arthritis: 10 μg vaccine on days 0, 14, 28, day 35 challenge with 5×10^3 or 1×10^4 N40 B. burgdorferi in footpad, day 56 histology; for mice protected from development of arthritis (protected/total): same protocol, number of mice
Excerpt: The mouse vaccination protocol was based upon experiments in the literature which initially identified OspA as having potential as a vaccine. The vaccine has not been tested in vivo with tick challenge due to the technically difficult nature of the animal handling for such experiments. However, the artificial system used here has been utilized by others in the past and reflects accurately on the protective ability of the modified vaccine. (Fikrig et al, 1997 Immunity 6:531-539; Bockenstedt et al,1993 J Immunol 151:900-906, Fikrig et al, 1992 PNAS 89:5418-5421)
The correlation between infection and arthritis, measured for the first vaccination trial, was 1:1.
as §4

Row | Molecule | production of interferon gamma by T cell clones [1] | production of interleukin 13 by T cell clones [1] | proliferation response of T cell clones [2] | binding of monoclonal antibody LA-2 (monoclonal antibody LA-2) | serum OspA-specific IgG pre-infection (OspA) | serum OspA-specific IgG post-infection (OspA) | mice protected from development of arthritis (N40 B. burgdorferi) [%] | mice protected from development of arthritis (protected/total) (N40 B. burgdorferi) | ability to stimulate OspA-specific T cell clones (proliferation or cytokine secretion) ([2]; clones from synovial fluid of an HLA DRB1*0401 homozygous patient)
1 | wildtype OspA: recombinant wildtype B. burgdorferi outer surface protein A [reference compound] | induces production | induces production | proliferate | binds; also recorded: equivalently | similar | similar | 75 | 12/16 | –
2 | B1 | not | not | not | binds; also recorded: equivalently | similar | similar | 87.5 | 14/16 | significantly decreased
